Drawing on patent CN114409782A (HUAI SHANGHAI BIOMEDICINE LTD COMPANY, dated 2022), this text covers Kd, koff and kon for three molecules.

B1: 抗IL13Ra2纳米抗体VHH-1 (VHH-mIgG2a Fc) (Fc fusion)
chain: QVQLVESGGGLVQPGGSLRLSCAASGFTLDYYAIAWFRQAPGKRREGVSCISSSEGSTNYADSVKGRFTISRDNAKNTVYLQMNSLKPEDTAVYYCAADSTGRCWARPLYEYDYRGQGTQVTVSS
notes: not shown: mouse IgG2a Fc tag from vector C-4pCP.Stuffer-mCg2a-FC
B2: 抗IL13Ra2纳米抗体VHH-13 (VHH-mIgG2a Fc) (Fc fusion)
chain: B1 chain with L11S, P14A, A23T, A24S, G26R
notes: as for B1
B3: 抗IL13Ra2纳米抗体VHH-7 (VHH-mIgG2a Fc) (Fc fusion)
chain: QVQLVESGGGLAHPGGRLRVTCTASGANLKNYAVGWFRQRPGKQREEVACLRVRYANTNKAPSVRERVHVFREENNNLVYMLMSDLTPEDTGIYYCAARPQQPSADCSLLANDYDNWGQGIQVTVSE
notes: as for B1

Residue numbers refer to the chain shown, from its start.

In this experiment the target is T1, IL13Ra2抗原 (in solution, Biacore) (UniProt Q14627 27-343, limits assumed).
T1 construct: also called IL13Rα2; 白介素13受体α2
T1 sequence (looked up): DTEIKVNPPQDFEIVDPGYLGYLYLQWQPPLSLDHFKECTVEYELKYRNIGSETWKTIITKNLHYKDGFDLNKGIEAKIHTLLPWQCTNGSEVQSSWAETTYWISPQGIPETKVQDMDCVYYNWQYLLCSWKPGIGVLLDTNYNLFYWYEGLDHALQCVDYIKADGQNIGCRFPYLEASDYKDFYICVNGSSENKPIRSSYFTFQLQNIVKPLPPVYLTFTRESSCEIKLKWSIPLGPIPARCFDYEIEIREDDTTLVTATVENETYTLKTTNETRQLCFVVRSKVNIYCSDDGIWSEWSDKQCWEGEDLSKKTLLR
Put plainly: SPR (Biacore), antibody fixed on chip, IL13Ra2 in solution. A general note: In SPR one partner is held on a chip, and binding of the other changes the refractive index at the surface.
The term Kd denotes the free concentration of one partner at which half of the binding sites on the other are occupied at equilibrium, for simple one-to-one binding. What is called koff is a measure of how fast the partners let go of each other. As usually defined, the kon is a measure of how fast the partners come together. Molecule B1 returned a Kd of 16.1 nM, a koff of 0.00156 s⁻¹ and a kon of 55300 M⁻¹ s⁻¹.
The like results for B2 were, in that order, 16.6 nM, 0.00433 s⁻¹ and 68300 M⁻¹ s⁻¹.
Molecule B3 came in with a Kd of 32.4 nM, a koff of 0.00066 s⁻¹ and an on-rate constant (kon) of 65400 M⁻¹ s⁻¹.
